Experimental data: the supplement of paper PMC10567573

B1: TMEM40 (parent)
chain: YGETDFHKQDGKAGLFSQEQYERN
B2: SPSB1 (parent)
chain: DMRDPTYRPLKQELQGLDYCKPTR

Variants of: B1
Experiment: protein stability index of a GFP-peptide fusion (GPS, HEK-293T) (PSI 1-6); higher = more stable
Settings: c terminus: a fixed tail appended
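Further: lentivirally expressed fusions sorted by FACS into six bins by GFP to DsRed ratio, PSI derived from sequencing read proportions per bin multiplied by bin number.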

Protein stability index of substitutions, site by site:
D10: F 2.26 | G 3.24 | H 2.77 | I 1.92 | K 3.44 | L 2.09 | M 1.47 | N 3.92 | P 3.12 | Q 2.9 | R 3.37 | S 2.96 | T 3.04 | V 2 | W 2.27 | Y 2.85
G11: A 4.25 | C 3.77 | D 4.5 | E 4.68 | F 3.86 | H 4.16 | I 3.9 | K 4.16 | M 4.58 | N 4.32 | P 3.46 | Q 4.04 | R 4.08 | S 4.55 | T 3.68 | V 4.21 | W 3.2 | Y 3.75
K12: A 4.25 | C 4.35 | D 4.86 | E 4.82 | F 4.21 | G 4.19 | H 4.28 | I 3.93 | L 3.66 | M 4.14 | N 4.78 | P 4.38 | Q 4.21 | R 4.1 | S 4.86 | T 4.5 | V 4.49 | W 3.21 | Y 3.99
A13: C 3.28 | D 4.28 | E 4.33 | F 3.83 | G 4.08 | H 4.21 | I 4.03 | K 4.04 | L 4.07 | M 3.65 | N 4.54 | P 3.54 | Q 3.93 | R 3.96 | S 3.83 | T 4.28 | V 4.27 | W 3.87 | Y 3.41
G14: A 4.02 | C 4.18 | D 4.79 | E 4.63 | F 3.69 | H 4.06 | I 3.93 | K 4.32 | L 3.86 | M 4.45 | N 4.47 | P 4.34 | Q 4.29 | R 3.84 | S 4.68 | T 4.06 | V 4.09 | W 2.72 | Y 3.74
L15: A 4.39 | C 4.38 | D 5.02 | E 4.66 | F 3.32 | G 4.73 | H 4.02 | I 4.08 | K 4.49 | M 4.27 | N 4.5 | P 4.89 | Q 4.51 | R 4.43 | S 5.04 | T 4.55 | V 4.18 | W 3.8 | Y 3.84
F16: A 4.97 | C 3.78 | D 5.25 | E 4.3 | G 4.84 | H 5.06 | I 4.58 | K 4.38 | L 4.47 | M 4.53 | N 4.91 | P 5.02 | Q 5.1 | R 4.81 | S 4.88 | T 4.58 | V 4.65 | W 3.08 | Y 5.04
S17: A 3.79 | C 4.07 | D 3.98 | E 4.51 | F 3.1 | G 3.94 | H 3.54 | I 3.81 | K 3.44 | L 3.35 | M 3.97 | N 4.52 | P 4.03 | Q 4.48 | R 4.27 | T 3.81 | V 4.08 | W 1.97 | Y 3.66
Q18: A 3.66 | C 2.82 | D 4.5 | E 4.6 | F 3.65 | G 4.26 | H 4.29 | I 3.58 | K 4.55 | L 3.81 | M 3.23 | N 3.66 | P 2.05 | R 3.83 | S 3.3 | T 3.41 | V 3.36 | W 3.45 | Y 3.4
E19: A 3.54 | C 3.48 | D 4.45 | F 2.54 | G 3.66 | H 3.29 | I 2.23 | K 3.23 | L 2.21 | M 3.15 | N 3.9 | P 3.72 | Q 3.7 | R 3.49 | S 3.6 | T 3.73 | V 3.22 | W 2.64 | Y 3.15
Q20: A 4.32 | C 3.5 | D 4.71 | E 4.45 | F 3.41 | G 3.48 | H 4.01 | I 3.85 | K 3.79 | L 3.42 | M 3.92 | N 4.12 | P 3.55 | R 3.92 | S 4.3 | T 4.15 | V 3.66 | W 3 | Y 3.71
Y21: A 4.04 | C 3.95 | D 4.95 | E 4.35 | F 4.25 | G 4.8 | H 4.73 | I 4.65 | K 4.54 | L 4.07 | M 3.92 | N 4.47 | P 4.32 | Q 4.44 | R 5.25 | S 4.63 | T 5.02 | V 4.38 | W 4.09
E22: A 3.91 | C 3.61 | D 4.03 | F 3.19 | G 3.83 | H 3.34 | I 3.29 | K 3.67 | L 3.61 | M 3.64 | N 3.85 | P 3.48 | Q 3.8 | R 3.71 | T 4.01 | V 3.76 | W 2.74 | Y 3.23
R23: A 4.69 | C 4.32 | D 4.9 | E 4.7 | F 4.04 | G 4.58 | H 4.3 | I 4.11 | K 4.37 | L 4 | M 4.17 | N 4.16 | P 4.21 | Q 4.3 | S 4.37 | T 4.62 | V 3.67 | W 4.13 | Y 4.02
N24: A 3.63 | C 3.98 | D 4.4 | E 4.54 | F 3.8 | G 4.12 | H 3.88 | I 3.54 | K 4.6 | L 4.16 | M 3.89 | P 3.25 | Q 4.09 | S 4.22 | T 3.89 | V 3.67 | W 3.99 | Y 3.85

Variants of: B2
Experiment: as above
Settings: c terminus: a fixed tail appended

Protein stability index, by site and new letter:
D1: A 2.45 | C 3.94 | E 3.53 | F 3 | G 2.65 | H 2.94 | I 2.57 | K 3.06 | L 2.36 | M 3.39 | N 3.12 | P 3.82 | Q 2.83 | R 3.32 | S 3.02 | T 3.62 | W 1.78 | Y 2.99
M2: A 3.22 | C 3.01 | D 3.86 | E 3.51 | F 3.42 | G 3.78 | H 3.64 | I 3.19 | K 3.13 | L 3.01 | N 3.38 | P 4.62 | Q 3.26 | R 3.71 | S 3.77 | T 2.64 | V 3.02 | W 2.57 | Y 2.72
R3: A 3.16 | C 2.9 | D 2.59 | E 3.84 | F 2.92 | G 3.21 | H 3.08 | I 2.96 | K 3.2 | L 2.9 | M 2.99 | N 3.19 | P 3.36 | Q 3.45 | S 3.89 | T 3.42 | W 3.14 | Y 2.8
